Test results: the supplement of paper PMC10567573

B1: GLTSCR2 (parent)
chain: YNPSFEDHQTLLSAAHEVELQRQK

Variants of: B1
Test: protein stability index of a GFP-peptide fusion (GPS, HEK-293T) (PSI 1-6); higher = more stable
Conditions: c terminus: a fixed tail appended
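Also: lentivirally expressed fusions sorted by FACS into six bins by GFP to DsRed ratio, PSI derived from sequencing read proportions per bin multiplied by bin number.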

Variant	protein stability index
QNPSFEDHQTLLSAAHEVELQRQK [Y1Q]	5.07
ANPSFEDHQTLLSAAHEVELQRQK [Y1A]	4.93
PNPSFEDHQTLLSAAHEVELQRQK [Y1P]	5.16
INPSFEDHQTLLSAAHEVELQRQK [Y1I]	4.74
RNPSFEDHQTLLSAAHEVELQRQK [Y1R]	5.37
HNPSFEDHQTLLSAAHEVELQRQK [Y1H]	5.16
MNPSFEDHQTLLSAAHEVELQRQK [Y1M]	4.96
SNPSFEDHQTLLSAAHEVELQRQK [Y1S]	5.38
ENPSFEDHQTLLSAAHEVELQRQK [Y1E]	4.87
FNPSFEDHQTLLSAAHEVELQRQK [Y1F]	3.65
NNPSFEDHQTLLSAAHEVELQRQK [Y1N]	4.71
KNPSFEDHQTLLSAAHEVELQRQK [Y1K]	4.87
WNPSFEDHQTLLSAAHEVELQRQK [Y1W]	4.16
GNPSFEDHQTLLSAAHEVELQRQK [Y1G]	5.36
CNPSFEDHQTLLSAAHEVELQRQK [Y1C]	4.78
VNPSFEDHQTLLSAAHEVELQRQK [Y1V]	5.11
LNPSFEDHQTLLSAAHEVELQRQK [Y1L]	5.03
TNPSFEDHQTLLSAAHEVELQRQK [Y1T]	4.67
DNPSFEDHQTLLSAAHEVELQRQK [Y1D]	5.25
YNPSFEGHQTLLSAAHEVELQRQK [D7G]	4.17
YNPSFEFHQTLLSAAHEVELQRQK [D7F]	2.81
YNPSFEAHQTLLSAAHEVELQRQK [D7A]	3.72
YNPSFENHQTLLSAAHEVELQRQK [D7N]	3.98
YNPSFECHQTLLSAAHEVELQRQK [D7C]	4.08

Variant	protein stability index
YNPSFEPHQTLLSAAHEVELQRQK [D7P]	4.13
YNPSFEKHQTLLSAAHEVELQRQK [D7K]	3.62
YNPSFEEHQTLLSAAHEVELQRQK [D7E]	3.46
YNPSFELHQTLLSAAHEVELQRQK [D7L]	3.35
YNPSFEIHQTLLSAAHEVELQRQK [D7I]	3.21
YNPSFEMHQTLLSAAHEVELQRQK [D7M]	3.23
YNPSFEQHQTLLSAAHEVELQRQK [D7Q]	4.27
YNPSFEHHQTLLSAAHEVELQRQK [D7H]	3.67
YLPSFEDHQTLLSAAHEVELQRQK [N2L]	5.05
YYPSFEDHQTLLSAAHEVELQRQK [N2Y]	4.29
YMPSFEDHQTLLSAAHEVELQRQK [N2M]	4.34
YWPSFEDHQTLLSAAHEVELQRQK [N2W]	4.2
YRPSFEDHQTLLSAAHEVELQRQK [N2R]	4.29
YFPSFEDHQTLLSAAHEVELQRQK [N2F]	3.81
YEPSFEDHQTLLSAAHEVELQRQK [N2E]	4.46
YGPSFEDHQTLLSAAHEVELQRQK [N2G]	4.39
YAPSFEDHQTLLSAAHEVELQRQK [N2A]	2.13
YCPSFEDHQTLLSAAHEVELQRQK [N2C]	2.74
YKPSFEDHQTLLSAAHEVELQRQK [N2K]	4.28
YPPSFEDHQTLLSAAHEVELQRQK [N2P]	4.76
YHPSFEDHQTLLSAAHEVELQRQK [N2H]	2.97
YVPSFEDHQTLLSAAHEVELQRQK [N2V]	1.6
YTPSFEDHQTLLSAAHEVELQRQK [N2T]	3.36
YIPSFEDHQTLLSAAHEVELQRQK [N2I]	3.38

Variant	protein stability index
YQPSFEDHQTLLSAAHEVELQRQK [N2Q]	4.47
YDPSFEDHQTLLSAAHEVELQRQK [N2D]	5.66
YSPSFEDHQTLLSAAHEVELQRQK [N2S]	3.91
YNPSHEDHQTLLSAAHEVELQRQK [F5H]	4.09
YNPSREDHQTLLSAAHEVELQRQK [F5R]	3.96
YNPSYEDHQTLLSAAHEVELQRQK [F5Y]	3.68
YNPSKEDHQTLLSAAHEVELQRQK [F5K]	2.48
YNPSLEDHQTLLSAAHEVELQRQK [F5L]	3.43
YNPSCEDHQTLLSAAHEVELQRQK [F5C]	4
YNPSSEDHQTLLSAAHEVELQRQK [F5S]	3.88
YNPSTEDHQTLLSAAHEVELQRQK [F5T]	4.28
YNPSDEDHQTLLSAAHEVELQRQK [F5D]	5.24
YNPSPEDHQTLLSAAHEVELQRQK [F5P]	4.02
YNPSWEDHQTLLSAAHEVELQRQK [F5W]	3.07
YNPSGEDHQTLLSAAHEVELQRQK [F5G]	4.06
YNPSEEDHQTLLSAAHEVELQRQK [F5E]	4.9
YNPSMEDHQTLLSAAHEVELQRQK [F5M]	3.5
YNPSAEDHQTLLSAAHEVELQRQK [F5A]	4.22
YNPSNEDHQTLLSAAHEVELQRQK [F5N]	4.43
YNPSIEDHQTLLSAAHEVELQRQK [F5I]	4.07
YNPSVEDHQTLLSAAHEVELQRQK [F5V]	3.83
YNPSQEDHQTLLSAAHEVELQRQK [F5Q]	4.62
YNPWFEDHQTLLSAAHEVELQRQK [S4W]	3.67
YNPTFEDHQTLLSAAHEVELQRQK [S4T]	3.79

Variant	protein stability index
YNPRFEDHQTLLSAAHEVELQRQK [S4R]	4.65
YNPIFEDHQTLLSAAHEVELQRQK [S4I]	3.82
YNPKFEDHQTLLSAAHEVELQRQK [S4K]	4.17
YNPMFEDHQTLLSAAHEVELQRQK [S4M]	4.21
YNPEFEDHQTLLSAAHEVELQRQK [S4E]	4.72
YNPLFEDHQTLLSAAHEVELQRQK [S4L]	3.95
YNPFFEDHQTLLSAAHEVELQRQK [S4F]	4
YNPPFEDHQTLLSAAHEVELQRQK [S4P]	4.69
YNPDFEDHQTLLSAAHEVELQRQK [S4D]	4.72
YNPNFEDHQTLLSAAHEVELQRQK [S4N]	4.48
YNPAFEDHQTLLSAAHEVELQRQK [S4A]	4.1
YNPQFEDHQTLLSAAHEVELQRQK [S4Q]	4.28
YNPGFEDHQTLLSAAHEVELQRQK [S4G]	3.88
YNPVFEDHQTLLSAAHEVELQRQK [S4V]	4.02
YNPCFEDHQTLLSAAHEVELQRQK [S4C]	4.07
YNPHFEDHQTLLSAAHEVELQRQK [S4H]	4.26
YNPYFEDHQTLLSAAHEVELQRQK [S4Y]	4.27
YNPSFIDHQTLLSAAHEVELQRQK [E6I]	3.12
YNPSFDDHQTLLSAAHEVELQRQK [E6D]	4.14
YNPSFGDHQTLLSAAHEVELQRQK [E6G]	3.42
YNPSFNDHQTLLSAAHEVELQRQK [E6N]	3.33
YNPSFCDHQTLLSAAHEVELQRQK [E6C]	3.25
